In publication doi:10.1101/2024.05.07.593072:

Target: H-2Kb MHC class 1 molecule on RMA-S cells (mouse (endogenous in RMA-S))
Test: peptide-induced MHC stabilisation assay

OVA peptide (SIINFEKL) synthesized with PCR-IVTT reaction
H-2Kb-positive cells: 55.3%
